Measurements from US20240058465A1 (SUTRO BIOPHARMA, published 2024).
Changes are numbered by the printed parent chain.

B1: SRP1987-C05 parent (antibody, IgG1, V domains shown)
VH: EVQLVESGGGLVQPGGSLRLSCAASGFNISDYDIHWVRQAPGKGLEWVGGIDPDDGSTDYADSVKGRFTISADTSKNTAYLQMNSLRAEDTAVYYCARDYGVFDYWGQGTLVTVSS
VL: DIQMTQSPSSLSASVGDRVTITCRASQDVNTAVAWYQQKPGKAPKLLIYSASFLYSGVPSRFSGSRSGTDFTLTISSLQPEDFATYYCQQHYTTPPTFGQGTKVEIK
notes: IgG1 with trastuzumab LC; HIS- and FLAG-tagged; cell-free expressed
B2: SRP2188-D06 (antibody, IgG1, V domains shown)
VH: B1 VH with S30R, D54N, S57A
VL: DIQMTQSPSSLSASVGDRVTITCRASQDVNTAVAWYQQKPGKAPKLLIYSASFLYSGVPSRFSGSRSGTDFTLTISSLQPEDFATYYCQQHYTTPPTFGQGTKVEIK
notes: as for B1
B3: SRP2188-A05 (antibody, IgG1, V domains shown)
VH: B1 VH with S30K, D31R, G50W, D52N, S57D, D59Y
VL: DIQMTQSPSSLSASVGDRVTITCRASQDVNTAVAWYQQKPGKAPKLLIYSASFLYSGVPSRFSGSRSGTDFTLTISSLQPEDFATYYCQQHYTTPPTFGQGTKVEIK
notes: as for B1
B4: SRP2188-C09 (antibody, IgG1, V domains shown)
VH: B1 VH with S30N, D31S, G50W, D52N, D54H, S57D, D59Y, K65T
VL: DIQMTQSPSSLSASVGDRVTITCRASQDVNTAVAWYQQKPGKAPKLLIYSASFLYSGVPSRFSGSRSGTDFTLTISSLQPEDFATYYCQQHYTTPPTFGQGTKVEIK
notes: as for B1
B5: SRP2188-F08 (antibody, IgG1, V domains shown)
VH: B1 VH with S30P, Y32F, D33E, G49A, G50R, D52E, S57A
VL: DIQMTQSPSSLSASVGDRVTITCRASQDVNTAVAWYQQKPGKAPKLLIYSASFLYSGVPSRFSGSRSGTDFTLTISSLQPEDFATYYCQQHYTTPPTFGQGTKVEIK
notes: as for B1
B6: SRP2188-G01 (antibody, IgG1, V domains shown)
VH: B1 VH with D54N, S57A
VL: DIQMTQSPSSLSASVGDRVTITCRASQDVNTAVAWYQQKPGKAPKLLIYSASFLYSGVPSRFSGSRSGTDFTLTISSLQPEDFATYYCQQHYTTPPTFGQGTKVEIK
notes: as for B1
B7: SRP2188-D03 (antibody, IgG1, V domains shown)
VH: B1 VH with D54H, F103Y
VL: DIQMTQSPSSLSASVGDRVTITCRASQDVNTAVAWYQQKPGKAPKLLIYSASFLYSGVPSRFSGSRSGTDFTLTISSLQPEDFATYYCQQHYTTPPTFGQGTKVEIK
notes: as for B1
B8: SRP2188-B03 (antibody, IgG1, V domains shown)
VH: B1 VH with D31S, G50A, D54G, S57A, F103Y
VL: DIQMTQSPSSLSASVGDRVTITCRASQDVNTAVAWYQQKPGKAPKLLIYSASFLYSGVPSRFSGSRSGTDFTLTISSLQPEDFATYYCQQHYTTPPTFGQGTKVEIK
notes: as for B1
B9: SRP2188-E03 (antibody, IgG1, V domains shown)
VH: B1 VH with S30R, G49A, F103Y
VL: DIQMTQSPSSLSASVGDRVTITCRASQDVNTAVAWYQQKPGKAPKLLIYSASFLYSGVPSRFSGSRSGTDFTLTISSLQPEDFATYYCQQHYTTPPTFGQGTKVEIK
notes: as for B1
B10: SRP2188-A03 (antibody, IgG1, V domains shown)
VH: B1 VH with S30R, G50W, D52N, S57D, D59Y
VL: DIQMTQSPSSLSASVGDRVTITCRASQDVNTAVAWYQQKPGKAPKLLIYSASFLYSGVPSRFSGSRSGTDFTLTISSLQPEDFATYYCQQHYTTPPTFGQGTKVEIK
notes: as for B1
B11: SRP2188-F11 (antibody, IgG1, V domains shown)
VH: B1 VH with S30T, D31G, D54E, S57A
VL: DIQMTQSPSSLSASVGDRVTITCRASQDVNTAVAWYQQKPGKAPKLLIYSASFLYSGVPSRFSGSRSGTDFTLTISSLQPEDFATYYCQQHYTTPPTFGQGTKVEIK
notes: as for B1
B12: SRP2188-A07 (antibody, IgG1, V domains shown)
VH: B1 VH with S30H, D31H, G50W, D52N, S57D, D59Y
VL: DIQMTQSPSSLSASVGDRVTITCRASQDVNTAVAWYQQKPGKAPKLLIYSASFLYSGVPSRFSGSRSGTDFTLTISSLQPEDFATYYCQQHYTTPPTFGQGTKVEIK
notes: as for B1
B13: SRP2188-E04 (antibody, IgG1, V domains shown)
VH: B1 VH with G49A, D54Q, T91A, Y100F
VL: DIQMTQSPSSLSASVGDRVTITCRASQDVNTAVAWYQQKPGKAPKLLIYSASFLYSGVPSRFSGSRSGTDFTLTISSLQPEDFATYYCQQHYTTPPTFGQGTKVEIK
notes: as for B1
B14: SRP2188-B07 (antibody, IgG1, V domains shown)
VH: B1 VH with S30H, D31S, Y32H, G50W, D52N, S57D, D59Y, T69A, Q108R
VL: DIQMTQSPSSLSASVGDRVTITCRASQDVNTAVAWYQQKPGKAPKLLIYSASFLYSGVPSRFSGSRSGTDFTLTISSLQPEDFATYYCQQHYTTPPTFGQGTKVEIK
notes: as for B1
B15: SRP2188-D09 (antibody, IgG1, V domains shown)
VH: B1 VH with S30R, G49V, D54G, Y100F
VL: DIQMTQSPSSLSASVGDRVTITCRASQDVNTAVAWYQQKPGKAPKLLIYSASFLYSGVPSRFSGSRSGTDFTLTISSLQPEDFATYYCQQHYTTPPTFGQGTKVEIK
notes: as for B1
B16: SRP2188-A09 (antibody, IgG1, V domains shown)
VH: B1 VH with S30I, D31N, G50W, D52N, S57D, D59Y
VL: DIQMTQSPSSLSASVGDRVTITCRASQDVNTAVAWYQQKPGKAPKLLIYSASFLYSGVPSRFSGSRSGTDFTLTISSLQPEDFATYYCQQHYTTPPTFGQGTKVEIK
notes: as for B1
B17: SRP2188-D04 (antibody, IgG1, V domains shown)
VH: B1 VH with D54A, F103Y
VL: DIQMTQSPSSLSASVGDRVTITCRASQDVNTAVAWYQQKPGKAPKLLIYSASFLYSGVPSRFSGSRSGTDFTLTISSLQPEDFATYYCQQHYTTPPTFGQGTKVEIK
notes: IgG1 with trastuzumab LC; HIS- and FLAG-tagged; cell-free expressed in the screen; also called mAb 42
B18: SRP2188-E01 (antibody, IgG1, V domains shown)
VH: B1 VH with S30G, G49V, D54Q, S57A
VL: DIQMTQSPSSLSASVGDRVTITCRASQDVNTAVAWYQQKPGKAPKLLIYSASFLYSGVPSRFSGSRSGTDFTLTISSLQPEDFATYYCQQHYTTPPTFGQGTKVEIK
notes: as for B1
B19: SRP2188-B05 (antibody, IgG1, V domains shown)
VH: B1 VH with S30P, G50V, S57W, D59H
VL: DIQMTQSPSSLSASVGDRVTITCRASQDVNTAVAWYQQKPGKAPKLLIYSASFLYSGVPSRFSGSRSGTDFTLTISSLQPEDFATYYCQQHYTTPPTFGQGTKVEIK
notes: as for B1
B20: SRP2188-D01 (antibody, IgG1, V domains shown)
VH: B1 VH with S30K, D31S, G50W, D52N, D54Y, S57D, D59Y
VL: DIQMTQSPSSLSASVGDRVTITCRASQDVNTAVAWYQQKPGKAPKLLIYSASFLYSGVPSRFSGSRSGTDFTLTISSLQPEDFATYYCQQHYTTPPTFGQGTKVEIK
notes: as for B1

What was measured:
[1] = target: T1, human ROR1 (hROR1) expressed on cells (human, UniProt Q01973 30-937); test: cell-based or functional assay
[2] = target: T1, human ROR1 (hROR1) expressed on cells; test: flow cytometry, HCT116-hROR1 cells
human ROR1-ECD = target: T2, human ROR1-ECD (human, UniProt Q01973 30-406); test: SPR (Biacore), antibody captured by anti-Fc, human ROR1-ECD analyte
T2 construct: Bought protein; also called hROR1; ROR1-extracellular domain
Method: Anti-Fc polyclonal antibodies were immobilized onto a CMS chip (GE Life Sciences) using amine coupling chemistry (from Amine Coupling Kit, GE Life Sciences). The immobilization steps were carried out at a flow rate of 25 μL/min in 1×HBS-EP+buffer (GE Life Sciences; 10× Stock diluted before use). The sensor surfaces were activated for 7 min with a mixture of NHS (0.05 M) and EDC (0.2 M). The Anti-Fc antibodies were injected over all 4 flow cells at a concentration of 25 ug/ml in 10 mM sodium acetate, pH 4.5, for 7 min. Ethanolamine (1 M, pH 8.5) was injected for 7 min to block any remaining activated groups.
Off-rate and kinetic binding experiments were performed at 25° C. using 1×HBS-EP+buffer. Test and control antibodies were injected over the anti-Fc surface at concentrations of 5-10 μg/mL for 12 seconds at a flow rate of 10 μL/min on flow cells 2, 3 and 4, followed by a buffer wash for 30 seconds at the same flow rate. […] After capturing ligand (antibody) on the anti-Fc surface, the analyte (hROR1, Fz or Kr domains, Acro Biosystems, Delaware) was bound for 180 seconds, followed by a 600 second dissociation phase at a flow rate of 50 μL/min. Between each ligand capture and analyte binding cycle, regeneration was carried out using 2 injections of 10 mM Glycine pH 2.0 for 30 seconds at 30 μL/min, followed by a 30 second buffer wash step.

Row | Binder | Mino Nb-PBD, drug-conjugated 2° antibody Cell Killing IC50 [1] [pM] | Mino Nb-PBD, drug-conjugated 2° antibody Cell Killing Span [1] [%] | Bmax (MFI) [2] [MFI] | Kd [2] [nM] | Kd (human ROR1-ECD) [nM] | koff (human ROR1-ECD) [s⁻¹] | kon (human ROR1-ECD) [M⁻¹ s⁻¹]
1 | B1 | 0.77 | 68 | 9500 | 0.04 | 0.694 | 0.000681 | 981000
2 | B2 | 1.5 | 69 | 9810 | 0.04 | 0.628 | 0.000563 | 897000
3 | B3 | 1 | 71 | 9030 | 0.04 | 0.227 | 0.000243 | 1.07e+06
4 | B4 | 0.91 | 71 | 9080 | 0.03 | 0.504 | 0.00042 | 833000
5 | B5 | 0.71 | 75 | 9030 | 0.02 | 0.428 | 0.000422 | 987000
6 | B6 | 1.5 | 61 | 9750 | 0.05 | – | – | –
7 | B7 | 0.89 | 72 | 9110 | 0.04 | 0.838 | 0.00055 | 656000
8 | B8 | 1.7 | 71 | 9560 | 0.04 | 0.346 | 0.000334 | 965000
9 | B9 | 1.3 | 65 | 10300 | 0.02 | 0.464 | 0.000333 | 718000
10 | B10 | 1 | 71 | 9700 | 0.03 | 0.508 | 0.000389 | 766000
11 | B11 | 0.99 | 68 | 9480 | 0.03 | 0.313 | 0.000249 | 794000
12 | B12 | 0.48 | 75 | 9330 | 0.07 | 0.609 | 0.000406 | 666000
13 | B13 | 0.87 | 66 | 9860 | 0.03 | 0.604 | 0.000468 | 775000
14 | B14 | 1.4 | 72 | 8760 | 0.07 | 0.221 | 0.000194 | 880000
15 | B15 | 1.3 | 70 | 8970 | 0.06 | 0.366 | 0.00028 | 766000
16 | B16 | 0.88 | 71 | 9380 | 0.03 | 0.424 | 0.000401 | 944000
17 | B17 | 1.4 | 69 | 9690 | 0.04 | 0.426 | 0.000423 | 994000
18 | B18 | 1.5 | 69 | 9370 | 0.06 | 0.827 | 0.000387 | 468000
19 | B19 | 1.1 | 70 | 8510 | 0.03 | 0.757 | 0.000671 | 887000
20 | B20 | 1.1 | 72 | 8940 | 0.04 | – | – | –
